Measured values from patent CN101627111A.

Target: Fcγ受体(FcγR)
Test: cell-based or functional assay

## 2C11 huG1, HEK (145-2C11 variable regions on human IgG1/kappa, expressed in HEK 293E cells) (from UniProt P01857 1-330) (antibody)
  T cell activation in vivo (markers on splenocytes of dosed Balb/c mice, flow cytometry): 4 倍
